Measurements reported in patent publication US20240043568A1 (KEYMED BIOSCIENCES, published 2024).
Substitutions are numbered along the chain they refer to.

B1: 5D6 (antibody, V domains shown)
VH: QVQLQQSGAELVRPGASVKLSCKALGYTFADYEIHWVKQTPVHGLEWIGAIHPGSGGTAYNQTFEGKATLTADKSSTTAYMELSSLTSEDSAVYYCTRYYSFAYWGQGTLVTVSA
VL: DVLMTQTPLSLPVSLGDQASISCRSSQSLVHSNGNTYLHWYLQKPGQSPKLLIYKVSNRFSGVPDRFSGSGSGTDFTLKISRVEAEDLGVYFCSQSTHVPLTFGAGTKLELK
notes: Chimeric IgG: murine variable regions on human IgG1 CH1-CH3 and an antibody light chain constant region
B2: 19F1 (antibody, V domains shown)
VH: B1 VH
VL: DVLMTQTPLSLPVSLGDQASISCRSSQSLVHSNGNTYLHWYLQKPGQSPKLLIYKVSNRFSGVPDRFSGSGSGTDFTLKISRVEAEDLGVYFCSQSTHIPTFGGGTKLELK
notes: Chimeric human IgG1
B3: 41F1 (antibody, V domains shown)
VH: B1 VH
VL: B1 VL with S96N
notes: Chimeric human IgG1
B4: 29A10 (antibody, V domains shown)
VH: B1 VH with Q1E, E65K
VL: B1 VL with L3V, L111I
notes: Chimeric human IgG1
B5: 39G4 (antibody, V domains shown)
VH: B1 VH
VL: B2 VL with L3V, M4V, I99V, L110I
notes: Chimeric human IgG1
B6: 41H1 (antibody, V domains shown)
VH: B1 VH
VL: B1 VL with L3V, K79R, H98R
notes: Chimeric human IgG1
B7: 30B7 (antibody, V domains shown)
VH: B1 VH with K19R, A30T, I34M, T63K, E65K, T77S
VL: B1 VL with L111I
notes: Chimeric human IgG1
B8: 30A4 (antibody, V domains shown)
VH: B1 VH with T28A, E65K
VL: B1 VL with L3V
notes: Chimeric human IgG1
B9: 42A1 (antibody, V domains shown)
VH: B1 VH with N61S, E65K, Y100F
VL: B1 VL with L3V, M4V, V99A, L101Y, A105G, K108R, L111I
notes: Chimeric human IgG1
B10: 38D2 (antibody, V domains shown)
VH: B1 VH
VL: DVVMTQTPLSLPVSLGDQASISCRSSQSLENSNGNTYLNWYLQKPGQSPQLLIYRVSNRFSGVLDRFSGSGSGTDFTLKISRVEAEDLGVYFCLQVTHVPYTFGGGTKLEIK
notes: Chimeric human IgG1
B11: 34H1 (antibody, V domains shown)
VH: B1 VH
VL: B1 VL with L3V, T97I
notes: Chimeric human IgG1
B12: 28G4 (antibody, V domains shown)
VH: B1 VH with Q1E, E65K
VL: B1 VL with L29I, H39Q, F92Y, S94F, S96G, T97S, L101Y, A105G, L111I
notes: Chimeric human IgG1

The binders below were run against T1, human GPC3 on cells (human, UniProt P51654 25-563) (assay: flow cytometry, CHO-human GPC3 cells).
T1 construct: whole, on cells; One molecule is used for both CHO-hGPC3 transfectants and GPC3+ HepG2 cells; The assay field names the cell; also called CHO-hGPC3 (clone 2B10); CHO-human GPC3
Procedure: The binding of the antibodies to human GPC3 stably-transfected cells was detected by FACS. CHO-human GPC3 stably-transfected cells prepared in Example 1 in the logarithmic growth phase were adjusted to 5×10⁵ cells/ml with 4% calf serum (Hyclone, SH30626.06). 100 μl/well of cell suspension was added to a 96-well U-plate, and centrifuged at 300 g for 5 min. The supernatant was discarded. 100 μL of gradient diluted antibodies (initial concentration 200 nM, 3-fold dilution, 12 gradients) was added to each well and incubated at 4° C. for 45 min. The secondary antibody Alexa Fluro647 labeled goat anti-human IgG Fc (1:300 dilution) was added at 50 μL/well, incubated on ice for 45 minutes, and detected by flow cytometry.

| EC50 [nM] | Binder |
| --- | --- |
| 3.73 | B1 |
| 3.59 | B2 |
| 0.91 | B3 |
| 3.39 | B4 |
| 2.79 | B5 |
| 1.07 | B6 |
| 2.78 | B7 |
| 3.68 | B8 |
| 6.69 | B9 |
| 3.35 | B10 |
| 2.1 | B11 |
| 2.87 | B12 |

These binders were tested against T2, recombinant human GPC3 protein (human, UniProt P51654 25-563) (assay: BLI (Octet), antibody on Protein A probe).
T2 construct: also called human GPC3 full-length protein; recombinant GPC3 protein
Procedure: Using BLI technology (Octet), the antibody to be tested was captured on the Protein A probe. The binding capacity with human GPC3 protein (10 μg/ml as the initial concentration, 2-fold gradient, a total of 5 concentration points) was detected. The affinity constant KD was obtained according to the association and dissociation rates.

| Kd [nM] | koff [s⁻¹] | kon [M⁻¹ s⁻¹] | Binder |
| --- | --- | --- | --- |
| 27.7 | 0.00292 | 105000 | B1 |
| 18.3 | 0.00213 | 116000 | B2 |
| 18.5 | 0.00181 | 97900 | B3 |
| 19.8 | 0.00281 | 142000 | B4 |
| 26.2 | 0.00208 | 79500 | B5 |
| 25 | 0.00264 | 106000 | B6 |
| 10.9 | 0.000783 | 71700 | B7 |
| 19.9 | 0.00258 | 130000 | B8 |
| 40.5 | 0.00243 | 60000 | B9 |
| 11.3 | 0.000832 | 73400 | B10 |
| 12.9 | 0.00221 | 171000 | B11 |
| 11.3 | 0.00112 | 98900 | B12 |
